Assay [1] deals with T1, Human heat shock transcription factor 1 (Hsf1), wild type (human), Q00613.
T1 chain: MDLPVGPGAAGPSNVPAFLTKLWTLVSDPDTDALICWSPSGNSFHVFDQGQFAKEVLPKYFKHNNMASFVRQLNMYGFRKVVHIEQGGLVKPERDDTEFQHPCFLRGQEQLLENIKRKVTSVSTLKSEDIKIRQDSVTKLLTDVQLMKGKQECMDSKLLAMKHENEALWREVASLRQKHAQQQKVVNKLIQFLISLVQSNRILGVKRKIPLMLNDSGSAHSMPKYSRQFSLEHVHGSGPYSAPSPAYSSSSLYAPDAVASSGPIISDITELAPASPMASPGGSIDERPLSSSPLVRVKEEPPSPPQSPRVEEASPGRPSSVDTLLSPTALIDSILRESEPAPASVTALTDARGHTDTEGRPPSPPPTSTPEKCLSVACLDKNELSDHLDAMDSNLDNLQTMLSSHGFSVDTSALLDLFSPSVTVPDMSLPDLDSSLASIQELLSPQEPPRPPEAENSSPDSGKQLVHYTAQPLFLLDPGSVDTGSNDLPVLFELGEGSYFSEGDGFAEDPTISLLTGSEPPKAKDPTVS
In words: SEC + native gel or EMSA. The settings on record: remark: other sources report otherwise.

The target of assay [2] is T1, Human heat shock transcription factor 1 …. The assay is described as follows: native gel or EMSA. The note with it: remark: other sources report otherwise.

B1: Human heat shock transcription factor 1 (Hsf1), wild type, Q00613 1-529 (natural protein)
chain: T1 chain
As for B1, the stoichiometry N was 3 in assay [1] and > 3 in assay [2].

Broadly, the stoichiometry N is the number of molecules, sites or subunits per partner or assembly.
